Experimental data published in patent US20170119925.

Tested on: T1, Gln-Pro-Gln-Gly-Leu-Ala-Lys (QPQGLAK) peptide crosslinker
T1 sequence: QPQGLAK

Question: “general collagenase from Clostridium histolyticum” was tested. Which kcat/Km (s^-1M^-1), digestion kinetics by HPLC did it give?
Answer: 32 s^-1M^-1
